Reference: patent US20260258124A1 (CIMEIO THERAPEUTICS, published 2026)

Legend:
[1] = target: T1, human recombinant CD117 (c-Kit) from Sino Biological (Catalog No. 11996-H08H) (human, UniProt P10721 26-524); experiment: BLI Octet, set-up as in Example 2
T1 construct: also called soluble antigen
Method: IgG antibodies were immobilized on biosensors using suitable capture surfaces and binding of soluble antigen to immobilized antibodies was monitored by BLI (Octet). The resulting sensorgrams were analyzed using the supplied software (Fortebio). As antigen human recombinant CD117 (c-Kit) from Sino Biological was used (Catalog No. 11996-H08H, Lot #LC14SE0812). As a pre-experiment a series of experiments was performed to optimize assay parameters. The following parameters were selected:
(§1) In the main experiment kinetic assays were performed by first capturing IgG using anti-human Fc biosensors. The mAb capture biosensors were then submerged in wells containing different concentrations of antigen (association stage) followed by a dissociation step in running buffer. To allow for double reference correction, IgG-captured sensors were dipped into wells containing only buffer and blank sensors were also dipped into wells containing the antigen. This referencing provided a means of compensating for both the natural dissociation of the capture IgG and non-specific binding of the antigen to the sensor surface. Steps were performed at 25° C. at a constant shaking of 1000 rpm. New sensors were used for each sample. Dissociation rate constants (Kd) were calculated using the ForteBio Data Analysis software. All consumables used were those recommended by ForteBio.

[2] = target: T2, CD117 on wild-type cells (TF-1 cells, HSPCs, HSCs) (human, UniProt P10721 26-976); experiment: cell-based or functional assay
T2 sequence (P10721 26-976 limits assumed): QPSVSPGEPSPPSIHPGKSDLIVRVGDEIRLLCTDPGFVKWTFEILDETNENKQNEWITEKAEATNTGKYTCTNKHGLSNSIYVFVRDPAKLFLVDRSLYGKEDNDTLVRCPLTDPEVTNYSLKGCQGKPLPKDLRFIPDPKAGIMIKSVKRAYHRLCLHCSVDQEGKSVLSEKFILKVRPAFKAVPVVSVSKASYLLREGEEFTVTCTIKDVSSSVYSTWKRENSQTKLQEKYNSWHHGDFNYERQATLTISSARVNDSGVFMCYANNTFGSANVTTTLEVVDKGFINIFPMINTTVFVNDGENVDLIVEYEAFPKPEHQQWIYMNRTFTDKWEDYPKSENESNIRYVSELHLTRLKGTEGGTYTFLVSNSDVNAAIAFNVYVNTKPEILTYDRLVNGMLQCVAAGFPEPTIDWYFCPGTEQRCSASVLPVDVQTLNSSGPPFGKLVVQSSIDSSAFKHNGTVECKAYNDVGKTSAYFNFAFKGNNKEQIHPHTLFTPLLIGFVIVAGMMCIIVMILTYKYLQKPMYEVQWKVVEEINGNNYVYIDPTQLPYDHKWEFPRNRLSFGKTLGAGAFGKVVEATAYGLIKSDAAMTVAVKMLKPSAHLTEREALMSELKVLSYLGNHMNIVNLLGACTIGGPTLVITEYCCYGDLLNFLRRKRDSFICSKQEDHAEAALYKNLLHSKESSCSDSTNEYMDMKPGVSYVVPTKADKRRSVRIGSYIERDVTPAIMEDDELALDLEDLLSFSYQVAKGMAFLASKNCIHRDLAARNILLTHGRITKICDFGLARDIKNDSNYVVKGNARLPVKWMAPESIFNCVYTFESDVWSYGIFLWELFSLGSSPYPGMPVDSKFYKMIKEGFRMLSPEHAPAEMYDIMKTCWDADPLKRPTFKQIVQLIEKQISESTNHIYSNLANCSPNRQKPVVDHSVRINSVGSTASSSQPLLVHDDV

[3] = target: T2, CD117 on wild-type cells (TF-1 cells, …); experiment: cell-based or functional assay; remark: listed apart in the source
[4] = target: T1, human recombinant CD117 (c-Kit) from …; experiment: BLI Octet, set-up as in Example 2; remark: listed apart in the source
Method: as §1
All samples were diluted in freshly prepared running buffer. Antibody variants were immobilized onto the surface of a series of biosensors using the capture methods described. Antigen was passed over the surface to generate a binding response. Binding data for the IgG:antigen interactions were collected at 25° C. on the biosensors. A dilution series of the antigen was used in the association step, in order to fit results globally and get the best values for ka, kd, and KD. The response data for the binding of antigen to the surface immobilized IgG were fitted to a 1:1 binding model. HC0 LC0 refers to murine SR-1.

[5] = target: T2, CD117 on wild-type cells (TF-1 cells, …); experiment: flow cytometry on TF-1 wild-type cells, Fc receptors blocked, goat anti-human IgG Alexa Fluor 488 as secondary antibody
Method: Binding of the antibodies of the present disclosure to CD117 on TF-1 cells was measured. TF-1 wild-type cells were seeded at a concentration of 100,000 cells/well. A Fc receptor blocking was performed using 25 μL TruStain FcX (BioLegend) for 15 min. Next cells are treated with various concentrations of the antibodies to be tested (0.0001-5 μg/ml). After additional 30 min cells were washed, then a secondary antibody was added to the cells (IgG (H+L) Cross-Adsorbed Goat anti-Human, Alexa Fluor® 488). After 30 min and two additional wash steps a live dead staining via 7AAD (7-aminoactinomycin D) was performed using 0.5 μg/mL 7AAD for 10 min before analyzing cells in a flow cytometer.

T1 sequence (P10721 26-524 limits assumed): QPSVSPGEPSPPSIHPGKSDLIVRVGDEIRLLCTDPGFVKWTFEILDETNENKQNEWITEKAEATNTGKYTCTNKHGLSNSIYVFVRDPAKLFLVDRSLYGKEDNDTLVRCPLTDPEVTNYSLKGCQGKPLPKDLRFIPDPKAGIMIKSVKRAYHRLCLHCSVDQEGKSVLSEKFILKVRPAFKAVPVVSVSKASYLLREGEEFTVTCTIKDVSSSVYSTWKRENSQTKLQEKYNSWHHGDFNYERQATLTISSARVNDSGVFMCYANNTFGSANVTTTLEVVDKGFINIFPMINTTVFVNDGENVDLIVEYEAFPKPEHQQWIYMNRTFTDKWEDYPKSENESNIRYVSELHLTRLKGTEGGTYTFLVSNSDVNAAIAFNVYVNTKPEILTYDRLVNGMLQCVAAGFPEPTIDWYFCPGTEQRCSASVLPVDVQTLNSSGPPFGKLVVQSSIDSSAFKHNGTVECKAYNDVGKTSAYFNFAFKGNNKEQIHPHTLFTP

Row | binding result [1] | IC50, inhibition of SCF-dependent proliferation of TF-1 cells (CellTiter-Glo), Average [2] [µg/mL] | IC50, inhibition of SCF-dependent proliferation of TF-1 cells (CellTiter-Glo), Experiment #1 [2] [µg/mL] | IC50, inhibition of SCF-dependent proliferation of TF-1 cells (CellTiter-Glo), Experiment #2 [2] [µg/mL] | IC50, inhibition of SCF-dependent proliferation of CD34-positive HSPCs (CellTiter-Glo) [3] [µg/mL] | Kd [4] [nM] | EC50 (read off the curve) [5] [µg/mL] | Binder
1 | binds |  |  |  |  |  |  | Dreieckhorn (antibody, V domains shown, IgG; also called VH1.4/VL1.32) VH: QVQLVQSGAEVKKPGASVKVSCKASGYTFTSYNMHWVRQAPGQGLEWMGVIYSGQGDTSYNQKFKGRVTMTTDTSTSTAYMELRSLTSDDTAVYYCARERDTRFGNWGQGTLVTVSA VL: EIVLTQSPSSLSASVGDRVTITCRASESVDIYGESFMHWYQQKPGKAPKLLIYSASNLESGVPSRFSGSGSGTDFTLTISSLQPEDFATYYCQQNREEPYTFGQGTKLEIK
2 |  | 0.0176 | 0.0122 | 0.0231 | 0.00521 | 0.19 | ~0.02 | Piz Bernina (antibody, V domains shown, IgG; also called VH1/VL1.17) VH: QVQLVQSGAEVKKPGASVKVSCKASGYTFTSYNMHWVRQAPGQGLEWMGVIYSGNGDTSYNQKFKGRVTMTTDTSTSTAYMELRSLTSDDTAVYYCARERDTRFGNWGQGTLVTVSA VL: EIVLTQSPSSLSASVGDRVTITCRASESVDIYGESFMHWYQQKPGKAPKLLIYLASNLESGVPSRFSGSGSGTDFTLTISSLQPEDFATYYCQQNNEEPYTFGQGTKLEIKR
3 |  | 0.0441 | 0.0415 | 0.0467 | 0.0313 | 0.45 | ~0.02 | Allalinhorn (antibody, V domains shown, IgG; also called VH1/VL1.19; Allaninhorn) VH: QVQLVQSGAEVKKPGASVKVSCKASGYTFTSYNMHWVRQAPGQGLEWMGVIYSGNGDTSYNQKFKGRVTMTTDTSTSTAYMELRSLTSDDTAVYYCARERDTRFGNWGQGTLVTVSA VL: EIVLTQSPSSLSASVGDRVTITCRASESVDIYGESFMHWYQQKPGKAPKLLIYLASNLESGVPSRFSGSGSGTDFTLTISSLQPEDFATYYCQQNKEEPYTFGQGTKLEIKR
4 |  | > 0.5 | > 0.5 | > 0.5 | > 10 | 3.3 | ~0.1 | Piz Argient (antibody, V domains shown, IgG; also called VH1/VL1.27) VH: QVQLVQSGAEVKKPGASVKVSCKASGYTFTSYNMHWVRQAPGQGLEWMGVIYSGNGDTSYNQKFKGRVTMTTDTSTSTAYMELRSLTSDDTAVYYCARERDTRFGNWGQGTLVTVSA VL: EIVLTQSPSSLSASVGDRVTITCRASESVDIYGHSFMHWYQQKPGKAPKLLIYLASNLESGVPSRFSGSGSGTDFTLTISSLQPEDFATYYCQQNKEEPYTFGQGTKLEIKR
5 | binds |  |  |  |  |  |  | Piz Palü (antibody, V domains shown, IgG; also called VH1.4/VL1.30) VH: QVQLVQSGAEVKKPGASVKVSCKASGYTFTSYNMHWVRQAPGQGLEWMGVIYSGQGDTSYNQKFKGRVTMTTDTSTSTAYMELRSLTSDDTAVYYCARERDTRFGNWGQGTLVTVSA VL: EIVLTQSPSSLSASVGDRVTITCRASESVDIYGESFMHWYQQKPGKAPKLLIYHASNLESGVPSRFSGSGSGTDFTLTISSLQPEDFATYYCQQNREEPYTFGQGTKLEIK
6 | binds |  |  |  |  |  |  | Piz Morteratsch (antibody, V domains shown, IgG; also called VH1.4/VL1.33) VH: QVQLVQSGAEVKKPGASVKVSCKASGYTFTSYNMHWVRQAPGQGLEWMGVIYSGQGDTSYNQKFKGRVTMTTDTSTSTAYMELRSLTSDDTAVYYCARERDTRFGNWGQGTLVTVSA VL: EIVLTQSPSSLSASVGDRVTITCRASESVDIYGESFMHWYQQKPGKAPKLLIYQASNLESGVPSRFSGSGSGTDFTLTISSLQPEDFATYYCQQNREEPYTFGQGTKLEIK
7 |  | > 0.5 | > 0.5 | > 0.5 | > 10 | 8.3 | ~0.2 | Piz Roseg (antibody, V domains shown, IgG; also called VH1/VL1.28) VH: QVQLVQSGAEVKKPGASVKVSCKASGYTFTSYNMHWVRQAPGQGLEWMGVIYSGNGDTSYNQKFKGRVTMTTDTSTSTAYMELRSLTSDDTAVYYCARERDTRFGNWGQGTLVTVSA VL: EIVLTQSPSSLSASVGDRVTITCRASESVDIYGSSFMHWYQQKPGKAPKLLIYKASNLESGVPSRFSGSGSGTDFTLTISSLQPEDFATYYCQQNKEEPYTFGQGTKLEIKR
8 |  | 0.151 | 0.0455 | 0.256 | 0.0842 | 1.1 | ~0.04 | Bietschhorn (antibody, V domains shown, IgG; also called VH1/VL1.29) VH: QVQLVQSGAEVKKPGASVKVSCKASGYTFTSYNMHWVRQAPGQGLEWMGVIYSGNGDTSYNQKFKGRVTMTTDTSTSTAYMELRSLTSDDTAVYYCARERDTRFGNWGQGTLVTVSA VL: EIVLTQSPSSLSASVGDRVTITCRASESVDIYGESFMHWYQQKPGKAPKLLIYLASNLESGVPSRFSGSGSGTDFTLTISSLQPEDFATYYCQQNREEPYTFGQGTKLEIKR
9 | binds |  |  |  |  |  |  | Nesthorn (antibody, V domains shown, IgG; also called VH1.4/VL1.31) VH: QVQLVQSGAEVKKPGASVKVSCKASGYTFTSYNMHWVRQAPGQGLEWMGVIYSGQGDTSYNQKFKGRVTMTTDTSTSTAYMELRSLTSDDTAVYYCARERDTRFGNWGQGTLVTVSA VL: EIVLTQSPSSLSASVGDRVTITCRASESVDIYGESFMHWYQQKPGKAPKLLIYEASNLESGVPSRFSGSGSGTDFTLTISSLQPEDFATYYCQQNREEPYTFGQGTKLEIK
10 | binds |  |  |  |  |  |  | Balmhorn (antibody, V domains shown, IgG; also called VH1.4/VL1.19) VH: QVQLVQSGAEVKKPGASVKVSCKASGYTFTSYNMHWVRQAPGQGLEWMGVIYSGQGDTSYNQKFKGRVTMTTDTSTSTAYMELRSLTSDDTAVYYCARERDTRFGNWGQGTLVTVSA VL: EIVLTQSPSSLSASVGDRVTITCRASESVDIYGESFMHWYQQKPGKAPKLLIYLASNLESGVPSRFSGSGSGTDFTLTISSLQPEDFATYYCQQNKEEPYTFGQGTKLEIKR
